Experimental data reported in patent US9579365B2, “Therapeutic ribonucleases” (Quintessence Biosciences, Inc., priority 2008, dated 2017).

Experiments:
[1] = test system: RNA; experiment: ribonuclease (enzyme) activity compared with native human RNase 1; format: biochemical
[2] = molecular target: T1, ribonuclease inhibitor (Homo sapiens, UniProt P13489); experiment: ribonuclease inhibitor evasion; format: binding; settings: compared with QBI-119 and native human RNase 1
T1 sequence (P13489 1-461): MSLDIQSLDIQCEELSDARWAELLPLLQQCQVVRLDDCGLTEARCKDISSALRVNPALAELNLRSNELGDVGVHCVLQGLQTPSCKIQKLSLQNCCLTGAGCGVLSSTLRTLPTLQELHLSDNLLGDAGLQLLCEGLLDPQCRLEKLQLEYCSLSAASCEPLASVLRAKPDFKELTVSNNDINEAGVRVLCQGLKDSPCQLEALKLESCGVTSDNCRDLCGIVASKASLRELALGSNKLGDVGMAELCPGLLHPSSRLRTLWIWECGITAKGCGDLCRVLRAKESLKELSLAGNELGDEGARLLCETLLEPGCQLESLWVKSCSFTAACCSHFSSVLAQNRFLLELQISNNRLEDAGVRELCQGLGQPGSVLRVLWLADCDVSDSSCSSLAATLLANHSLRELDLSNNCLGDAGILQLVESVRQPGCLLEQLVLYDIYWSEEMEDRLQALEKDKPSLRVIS

B1: SEQ ID NO:1: native human RNase 1 with amino acid modifications R4C, G38R, R39G, N67R, G89R, S90R, and V118C (protein)
chain: KESCAKKFQRQHMDSDSSPSSSSTYCNQMMRRRNMTQRGCKPVNTFVHEPLVDVQNVCFQEKVTCKRGQGNCYKSNSSMHITDCRLTNRRRYPNCAYRTSPKERHIIVACEGSPYVPCHFDASVEDST
[1]; compared with QBI-119 and native human RNase 1
  enzyme activity, comparison in words: inferior to QBI-119 and native human RNase 1
[1]; relative to native human RNase 1
  fraction of the ribonuclease activity of native human RNase1: less than 1%
[2]
  ribonuclease inhibitor evasion, comparison in words: inferior to QBI-119 and native human RNase 1
